# Measurements taken from patent US20220275090A1, “Combination Therapies with Anti-CD38 Antibodies and PARP or Adenosine Receptor Inhibitors” (Janssen Biotech, Inc., priority 2021, published 2022).
# Biological target: T1, mouse CD38 (Mus musculus, UniProt P56528)
# T1 sequence (P56528 1-304): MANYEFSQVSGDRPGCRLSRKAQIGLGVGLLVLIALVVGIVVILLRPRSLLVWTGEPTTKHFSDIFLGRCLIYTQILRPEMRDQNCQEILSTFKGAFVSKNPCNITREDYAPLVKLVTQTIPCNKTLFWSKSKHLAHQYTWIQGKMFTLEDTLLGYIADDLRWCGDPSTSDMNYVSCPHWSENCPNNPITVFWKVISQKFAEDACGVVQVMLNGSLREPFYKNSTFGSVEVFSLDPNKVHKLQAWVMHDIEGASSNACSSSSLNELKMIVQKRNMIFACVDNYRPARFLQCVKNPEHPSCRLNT
# Assay: Binding to mouse CD38 (statement)
substance,measurement,value
"Daratumumab: anti-CD38 antibody of IgG1/κ subtype; heavy chain SEQ ID NO: 12, light chain SEQ ID NO: 13",binding to mouse CD38,does not bind
